# Measured values reported in US20240115719A1, “COMPOUND OR SALT THEREOF, AND ANTIBODY OBTAINED BY USING THE SAME” (priority 2021, published 2024).
# Experiment: Stability test of ADC mimic in rat plasma (eliminated fluorescent molecules by HPLC/fluorescence detection)
# Assay type: in vitro ADME
# Details: ADC mimic 0.1 mg/mL, 37° C. for 4 days vs -80° C. (Day 0 = 100%)
# Description: Blood stability of various ADC mimics was assessed by analyzing the amounts of fluorescent molecules that were reduced from ADC mimic when ADC mimic was incubated in rat blood as described below.
# Sterile filtration was performed on 700 μL of rat plasma (Charles River) after ADC mimic was added to it so as to be 0.1 mg/mL. The solution was dispensed into six Eppen tubes in 50 μL portions. Three of the six samples were stored in an incubator set at 37° C. for 4 days. The remaining three were also stored in a −80° C. freezer for 4 days. 100 μL of acetonitrile was added to each sample, and the mixture was vortexed and centrifuged to obtain a precipitate. The resulting supernatant was collected and analyzed by HPLC.
# The determination was made using a liquid chromatography/fluorescence detection method to determine the amount of fluorescence molecules that had eliminated from ADC mimic.
# A lower rate of increase indicates higher stability in plasma.
# Increase in fluorescence intensity of fluorescent molecules eliminated from Example ADC mimic=[(Day=4 fluorescence intensity)−(Day=0 fluorescence intensity)].
# Increase in fluorescence intensity of fluorescent molecules eliminated from Control ADC mimic=[(Day=4 fluorescence intensity)−(Day=0 fluorescence intensity)].
# Carboxyrhodamine 110-PEG4-DBCO was separately used to calculate the colleration between area-area of fluorescent intensity and concentration for HPLC. An increase in the fluorescent intensity of the respective ADC mimic was converted into a concentration by using the calculation equation. When the concentration of Day 0 was taken as 100%, the percentage of the concentration of the above increase was calculated as the elimination rate.
row,SMILES,Elimination rate of fluorescence molecule at Day = 4
1,CCCNC(=O)c1cc(N=[N+]=[N-])cc(C(=O)NO)c1 [compound 93],<3%
2,CCCNC(=O)CC[C@H](NC(=O)CCCCN=[N+]=[N-])C(=O)NO [compound 96],<3%
3,CCCNC(=O)CC[C@H](NC(=O)CCCCN=[N+]=[N-])C(=O)NOC [compound 101],<3%
4,CCNC(=O)CC[C@H](NC(=O)CCCCN=[N+]=[N-])C(=O)NOC [compound 102],<3%
5,CCCNC(=O)C[C@H](NC(=O)COCCOCCOCCN=[N+]=[N-])C(=O)NO [compound 107],20%
6,CCCNC(=O)C[C@H](NC(=O)CCCCN=[N+]=[N-])C(=O)NO [compound 111],21%
